In this test the target is NFL-c-Myc T581 (firefly) [luciferase: P08659]. Kind of test: cell-based or functional assay.
Sequence of NFL-c-Myc T581 (firefly) [luciferase: P08659] (P08659 other isoform, or with tags, fused parts or gaps): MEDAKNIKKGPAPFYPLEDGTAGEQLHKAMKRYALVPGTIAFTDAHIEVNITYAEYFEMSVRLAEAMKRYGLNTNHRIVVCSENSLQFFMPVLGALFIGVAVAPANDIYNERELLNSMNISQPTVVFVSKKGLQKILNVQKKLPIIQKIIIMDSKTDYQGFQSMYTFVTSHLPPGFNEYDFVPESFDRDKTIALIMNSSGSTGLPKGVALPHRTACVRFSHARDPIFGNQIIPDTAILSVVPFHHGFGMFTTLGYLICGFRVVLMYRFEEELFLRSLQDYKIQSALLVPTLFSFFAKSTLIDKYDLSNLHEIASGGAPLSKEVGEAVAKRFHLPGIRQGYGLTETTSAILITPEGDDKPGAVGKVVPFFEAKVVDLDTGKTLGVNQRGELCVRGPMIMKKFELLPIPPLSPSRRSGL

B1: GSK 35-433-CFL, P49841 35-420 (protein, not shown: large carriers)
chain: SKVTTVVATPGQGPDRPQEVSYTDTKVIGNGSFGVVYQAKLCDSGELVAIKKVLQDKRFKNRELQIMRKLDHCNIVRLRYFFYSSGEKKDEVYLNLVLDYVPETVYRVARHYSRAKQTLPVIYVKLYMYQLFRSLAYIHSFGICHRDIKPQNLLLDPDTAVLKLCDFGSAKQLVRGEPNVSYICSRYYRAPELIFGATDYTSSIDVWSAGCVLAELLLGQPIFPGDSGVDQLVEIIKVLGTPTREQIREMNPNYTEFKFPQIKAHPWTKDSSGTGHFTSGVRVFRPRTPPEAIALCSRLLEYTPTARLTPLEACAHSFFDELRDPNVKLPNGRDTPALFNFTTQELSSNPPLATILIPPHARIQAAASTPTNATAASDANTGDRGQTNNAASASASNST
modifications: here or on the partner: phosphorylation partially abolished (T58 cannot be phosphorylated)
As to B1, the complemented FL activity of SKBR3 xenografts in nude mice, normalized to hRL activity, compared with pcDNA3.1(+) vector turned out to be 4.7 fold.

Values taken from patent US20120270914A1, “SPLIT-LUCIFERASE C-MYC SENSOR AND USES THEREOF” (THE BOARD OF TRUSTEES OF THE LELAND STANFORD JUNIOR …, priority 2011, published 2012).
